# Assay results from patent US20160272683A1 (Novo Nordisk, published 2016).
# Numbered stars: 1 amine (or outer) side, 2 acyl side, 3 side chain; on linkers, the order of the positions; unused ones are H or OH. Side chains are listed from the residue outwards. Ends that are not written are not given here. * marks the point of attachment. C20 diacid = O=C(O)CCCCCCCCCCCCCCCCCCC(=O)*; C18 diacid = O=C(O)CCCCCCCCCCCCCCCCC(=O)*; C16 diacid = O=C(O)CCCCCCCCCCCCCCC(=O)*; γGlu = O=C(O)[C@H](CCC(=O)[*:2])N[*:1]; C14 diacid = O=C(O)CCCCCCCCCCCCC(=O)*; AEEA = NCCOCCOCC(=O)O
# T1: human calcitonin receptor on BHK570/CRE-luc cells (human, UniProt P30988 25-474)
# T1 sequence (looked up): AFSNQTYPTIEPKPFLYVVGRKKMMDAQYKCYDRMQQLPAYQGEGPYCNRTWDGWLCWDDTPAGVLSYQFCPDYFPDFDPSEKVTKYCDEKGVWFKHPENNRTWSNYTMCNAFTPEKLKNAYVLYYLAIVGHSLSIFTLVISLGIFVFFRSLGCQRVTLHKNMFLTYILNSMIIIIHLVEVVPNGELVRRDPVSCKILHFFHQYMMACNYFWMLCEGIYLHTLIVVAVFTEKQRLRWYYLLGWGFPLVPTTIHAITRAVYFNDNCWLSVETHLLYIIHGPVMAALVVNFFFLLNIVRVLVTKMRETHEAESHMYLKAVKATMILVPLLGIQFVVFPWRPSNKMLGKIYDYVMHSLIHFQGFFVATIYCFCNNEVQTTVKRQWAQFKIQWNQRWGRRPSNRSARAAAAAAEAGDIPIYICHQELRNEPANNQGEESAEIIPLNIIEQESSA
# T2: human amylin 3(a) receptor (human calcitonin receptor co-expressed with RAMP-3) on BHK570/CRE-luc cells (human, UniProt P30988 25-474; O60896 24-148)
# T2 sequence (looked up) 1: T1 sequence (looked up)
# T2 sequence (looked up) 2: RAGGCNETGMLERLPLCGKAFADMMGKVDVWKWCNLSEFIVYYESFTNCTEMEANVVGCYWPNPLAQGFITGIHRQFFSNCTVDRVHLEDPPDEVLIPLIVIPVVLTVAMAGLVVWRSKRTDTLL
# B1: [des1, 4K(C20 diacid-gGlu), 30S, 31G]mimylin (peptide)
# peptide: ASK([γGlu-C20 diacid])LSTAALGRLSAELHELATLPRTETGSGSP-NH2
# modifications: N-terminus assumed
# SMILES: CC(C)C[C@H](NC(=O)[C@H](C)NC(=O)[C@H](C)NC(=O)[C@@H](NC(=O)[C@H](CO)NC(=O)[C@H](CC(C)C)NC(=O)[C@H](CCCCNC(=O)CC[C@H](NC(=O)CCCCCCCCCCCCCCCCCCC(=O)O)C(=O)O)NC(=O)[C@H](CO)NC(=O)[C@H](C)N)[C@@H](C)O)C(=O)NCC(=O)N[C@@H](CCCNC(=N)N)C(=O)N[C@@H](CC(C)C)C(=O)N[C@@H](CO)C(=O)N[C@@H](C)C(=O)N[C@@H](CCC(=O)O)C(=O)N[C@@H](CC(C)C)C(=O)N[C@@H](Cc1c[nH]cn1)C(=O)N[C@@H](CCC(=O)O)C(=O)N[C@@H](CC(C)C)C(=O)N[C@@H](C)C(=O)N[C@H](C(=O)N[C@@H](CC(C)C)C(=O)N1CCC[C@H]1C(=O)N[C@@H](CCCNC(=N)N)C(=O)N[C@H](C(=O)N[C@@H](CCC(=O)O)C(=O)N[C@H](C(=O)NCC(=O)N[C@@H](CO)C(=O)NCC(=O)N[C@@H](CO)C(=O)N1CCC[C@H]1C(N)=O)[C@@H](C)O)[C@@H](C)O)[C@@H](C)O
# B2: [N-terminal(C20 diacid-gGlu), 23Y, 30S, 31G]mimylin (peptide)
# peptide: {C20 diacid-γGlu}-EASELSTAALGRLSAELHELATYPRTETGSGSP-NH2
# SMILES: CC(C)C[C@H](NC(=O)[C@H](C)NC(=O)[C@H](C)NC(=O)[C@@H](NC(=O)[C@H](CO)NC(=O)[C@H](CC(C)C)NC(=O)[C@H](CCC(=O)O)NC(=O)[C@H](CO)NC(=O)[C@H](C)NC(=O)[C@H](CCC(=O)O)NC(=O)CC[C@H](NC(=O)CCCCCCCCCCCCCCCCCCC(=O)O)C(=O)O)[C@@H](C)O)C(=O)NCC(=O)N[C@@H](CCCNC(=N)N)C(=O)N[C@@H](CC(C)C)C(=O)N[C@@H](CO)C(=O)N[C@@H](C)C(=O)N[C@@H](CCC(=O)O)C(=O)N[C@@H](CC(C)C)C(=O)N[C@@H](Cc1c[nH]cn1)C(=O)N[C@@H](CCC(=O)O)C(=O)N[C@@H](CC(C)C)C(=O)N[C@@H](C)C(=O)N[C@H](C(=O)N[C@@H](Cc1ccc(O)cc1)C(=O)N1CCC[C@H]1C(=O)N[C@@H](CCCNC(=N)N)C(=O)N[C@H](C(=O)N[C@@H](CCC(=O)O)C(=O)N[C@H](C(=O)NCC(=O)N[C@@H](CO)C(=O)NCC(=O)N[C@@H](CO)C(=O)N1CCC[C@H]1C(N)=O)[C@@H](C)O)[C@@H](C)O)[C@@H](C)O
# B3: [N-terminal(C18 diacid-gGlu), des1, 30S, 31P]mimylin (peptide)
# peptide: {C18 diacid-γGlu}-ASELSTAALGRLSAELHELATLPRTETGSPSP-NH2
# SMILES: CC(C)C[C@H](NC(=O)[C@H](C)NC(=O)[C@H](C)NC(=O)[C@@H](NC(=O)[C@H](CO)NC(=O)[C@H](CC(C)C)NC(=O)[C@H](CCC(=O)O)NC(=O)[C@H](CO)NC(=O)[C@H](C)NC(=O)CC[C@H](NC(=O)CCCCCCCCCCCCCCCCC(=O)O)C(=O)O)[C@@H](C)O)C(=O)NCC(=O)N[C@@H](CCCNC(=N)N)C(=O)N[C@@H](CC(C)C)C(=O)N[C@@H](CO)C(=O)N[C@@H](C)C(=O)N[C@@H](CCC(=O)O)C(=O)N[C@@H](CC(C)C)C(=O)N[C@@H](Cc1c[nH]cn1)C(=O)N[C@@H](CCC(=O)O)C(=O)N[C@@H](CC(C)C)C(=O)N[C@@H](C)C(=O)N[C@H](C(=O)N[C@@H](CC(C)C)C(=O)N1CCC[C@H]1C(=O)N[C@@H](CCCNC(=N)N)C(=O)N[C@H](C(=O)N[C@@H](CCC(=O)O)C(=O)N[C@H](C(=O)NCC(=O)N[C@@H](CO)C(=O)N1CCC[C@H]1C(=O)N[C@@H](CO)C(=O)N1CCC[C@H]1C(N)=O)[C@@H](C)O)[C@@H](C)O)[C@@H](C)O
# Biological target: T1, human calcitonin receptor on …
# Test: cell-based or functional assay
row,"hCTR funct. EC50 (pM), tested with HSA [pM]",Binder
1,25,"{C20 diacid-γGlu-AEEA-AEEA-AEEA}-ASELSTAALGRLSAELHELATLPRTETGSGSP-NH2 [[N-terminal(C20 diacid-gGlu-3xOEG), des1, 30S, 31G]mimylin]"
2,30,B1
3,4,"{C14 diacid}-ASELSTAALGRLSAELHELATLPRTETGSGSP-NH2 [[N-terminal(C14 diacid), des1, 30S, 31G]mimylin]"
4,4,"{C14 diacid-γGlu}-ASELSTAALGRLSAELHELATLPRTETGSGSP-NH2 [[N-terminal(C14 diacid-gGlu), des1, 30S, 31G]mimylin]"
5,25,"{C20 diacid-γGlu-AEEA-AEEA-AEEA-AEEA}-ASELSTAALGRLSAELHELATLPRTETGSGSP-NH2 [[N-terminal(C20 diacid-gGlu-4xOEG), des1, 30S, 31G]mimylin]"
6,35,"{C20 diacid-γGlu-AEEA-AEEA}-ASELSTAALGRLSAELHELATLPRTETGSGSP-NH2 [[N-terminal(C20 diacid-gGlu-2xOEG), des1, 30S, 31G]mimylin]"
7,74,B2
8,8,"{C18 diacid}-ASELSTAALGRLSAELHELATLPRTETGSGSP-NH2 [[N-terminal(C18 diacid), des1, 30S, 31G]mimylin]"
9,19,B3
10,29,"{C20 diacid-γGlu}-ASELSTAALGRLSAELHELATLPRTETGSGSP-NH2 [[N-terminal(C20 diacid-gGlu), des1, 30S, 31G]mimylin]"
11,11,"{C18 diacid-γGlu}-ASELSTAALGRLSAELHELATLPRTETGSGSP-NH2 [[N-terminal(C18 diacid-gGlu), des1, 30S, 31G]mimylin]"
12,27,"{C20 diacid-γGlu-AEEA-AEEA-AEEA-AEEA-AEEA}-ASELSTAALGRLSAELHELATLPRTETGSGSP-NH2 [[N-terminal(C20 diacid-gGlu-5xOEG), des1, 30S, 31G]mimylin]"
13,3,"{C16 diacid}-ASELSTAALGRLSAELHELATLPRTETGSGSP-NH2 [[N-terminal(C16 diacid), des1, 30S, 31G]mimylin]"
14,30,"{C20 diacid-γGlu-AEEA}-ASELSTAALGRLSAELHELATLPRTETGSGSP-NH2 [[N-terminal(C20 diacid-gGlu-OEG), des1, 30S, 31G]mimylin]"
15,2,"{C16 diacid-γGlu}-ASELSTAALGRLSAELHELATLPRTETGSGSP-NH2 [[N-terminal(C16 diacid-gGlu), des1, 30S, 31G]mimylin]"

# Biological target: T2, human amylin 3(a) receptor (human …)
# Test: cell-based or functional assay
row,"hAmylin-R funct. EC50 (pM), tested with HSA [pM]",Binder
1,68,"{C20 diacid-γGlu-AEEA-AEEA-AEEA}-ASELSTAALGRLSAELHELATLPRTETGSGSP-NH2 [[N-terminal(C20 diacid-gGlu-3xOEG), des1, 30S, 31G]mimylin]"
2,74,B1
3,6,"{C14 diacid}-ASELSTAALGRLSAELHELATLPRTETGSGSP-NH2 [[N-terminal(C14 diacid), des1, 30S, 31G]mimylin]"
4,4,"{C14 diacid-γGlu}-ASELSTAALGRLSAELHELATLPRTETGSGSP-NH2 [[N-terminal(C14 diacid-gGlu), des1, 30S, 31G]mimylin]"
5,62,"{C20 diacid-γGlu-AEEA-AEEA-AEEA-AEEA}-ASELSTAALGRLSAELHELATLPRTETGSGSP-NH2 [[N-terminal(C20 diacid-gGlu-4xOEG), des1, 30S, 31G]mimylin]"
6,67,"{C20 diacid-γGlu-AEEA-AEEA}-ASELSTAALGRLSAELHELATLPRTETGSGSP-NH2 [[N-terminal(C20 diacid-gGlu-2xOEG), des1, 30S, 31G]mimylin]"
7,143,B2
8,9,"{C18 diacid}-ASELSTAALGRLSAELHELATLPRTETGSGSP-NH2 [[N-terminal(C18 diacid), des1, 30S, 31G]mimylin]"
9,39,B3
10,51,"{C20 diacid-γGlu}-ASELSTAALGRLSAELHELATLPRTETGSGSP-NH2 [[N-terminal(C20 diacid-gGlu), des1, 30S, 31G]mimylin]"
11,26,"{C18 diacid-γGlu}-ASELSTAALGRLSAELHELATLPRTETGSGSP-NH2 [[N-terminal(C18 diacid-gGlu), des1, 30S, 31G]mimylin]"
12,66,"{C20 diacid-γGlu-AEEA-AEEA-AEEA-AEEA-AEEA}-ASELSTAALGRLSAELHELATLPRTETGSGSP-NH2 [[N-terminal(C20 diacid-gGlu-5xOEG), des1, 30S, 31G]mimylin]"
13,4,"{C16 diacid}-ASELSTAALGRLSAELHELATLPRTETGSGSP-NH2 [[N-terminal(C16 diacid), des1, 30S, 31G]mimylin]"
14,73,"{C20 diacid-γGlu-AEEA}-ASELSTAALGRLSAELHELATLPRTETGSGSP-NH2 [[N-terminal(C20 diacid-gGlu-OEG), des1, 30S, 31G]mimylin]"
15,4,"{C16 diacid-γGlu}-ASELSTAALGRLSAELHELATLPRTETGSGSP-NH2 [[N-terminal(C16 diacid-gGlu), des1, 30S, 31G]mimylin]"
